Target: T1, HLA-A*02:01 (peptide-receptive MHC class I monomer after UV cleavage of the UV-sensitive ligand) (human)
T1 construct: MHC monomers loaded by UV-ligand exchange and captured on streptavidin plates
Test: UV ligand-exchange ELISA; exchange yield grade (+ >=10%, ++ >=20%, +++ >=50%, ++++ >=75%)
From the text: Candidate peptides for T cell based therapies according to the present invention were further tested for their MHC binding capacity (affinity). The individual peptide-MHC complexes were produced by UV-ligand exchange, where a UV-sensitive peptide is cleaved upon UV-irradiation, and exchanged with the peptide of interest as analyzed. Only peptide candidates that can effectively bind and stabilize the peptide-receptive MHC molecules prevent dissociation of the MHC complexes. To determine the yield of the exchange reaction, an ELISA was performed based on the detection of the light chain (β2m) of stabilized MHC complexes. The assay was performed as generally described in Rodenko et al. (Rodenko et al., 2006).
96 well MAXISorp plates (NUNC) were coated over night with 2 ug/ml streptavidin in PBS at room temperature, washed 4× and blocked for 1 h at 37° C. in 2% BSA containing blocking buffer. Refolded HLA-A*02:01/MLA-001 monomers served as standards, covering the range of 15-500 ng/ml. Peptide-MHC monomers of the UV-exchange reaction were diluted 100 fold in blocking buffer. Samples were incubated for 1 h at 37° C., washed four times, incubated with 2 ug/ml HRP conjugated anti-β2m for 1 h at 37° C., washed again and detected with TMB solution that is stopped with […]. Absorption was measured at 450 nm. Candidate peptides that show a high exchange yield (preferably higher than 50%, most preferred higher than 75%) are generally preferred for a generation and production of antibodies or fragments thereof, and/or T cell receptors or fragments thereof, as they show sufficient avidity to the MHC molecules and prevent dissociation of the MHC complexes.

peptide exchange yield [%] | Binder
50 to 75 | LLSGQLPTI [LLSGQLPTI (SEQ ID NO: 1)]
50 to 75 | FLLVGTQIDL [FLLVGTQIDL (SEQ ID NO: 10)]
≥ 75 | SLDQSTWNV [SLDQSTWNV (SEQ ID NO: 101)]
50 to 75 | SLFAAISGMIL [SLFAAISGMIL (SEQ ID NO: 102)]
50 to 75 | SLQDHLEKV [SLQDHLEKV (SEQ ID NO: 103)]
50 to 75 | VLLGLPLLV [VLLGLPLLV (SEQ ID NO: 104)]
50 to 75 | VLTPVILQV [VLTPVILQV (SEQ ID NO: 105)]
≥ 75 | VLYELLQYI [VLYELLQYI (SEQ ID NO: 106)]
50 to 75 | VQAVSIPEV [VQAVSIPEV (SEQ ID NO: 107)]
50 to 75 | YLAPENGYLM [YLAPENGYLM (SEQ ID NO: 108)]
50 to 75 | YLFQFSAAL [YLFQFSAAL (SEQ ID NO: 109)]
≥ 75 | YQYPFVLGL [YQYPFVLGL (SEQ ID NO: 110)]
50 to 75 | GLDTVVALL [GLDTVVALL (SEQ ID NO: 11)]
50 to 75 | YLLDTLLSL [YLLDTLLSL (SEQ ID NO: 111)]
50 to 75 | FLAILPEEV [FLAILPEEV (SEQ ID NO: 112)]
50 to 75 | FVIDSFEEL [FVIDSFEEL (SEQ ID NO: 113)]
20 to 50 | GLSDISPST [GLSDISPST (SEQ ID NO: 114)]
≥ 75 | LLIDIIHFL [LLIDIIHFL (SEQ ID NO: 115)]
50 to 75 | SLLDNLLTI [SLLDNLLTI (SEQ ID NO: 116)]
≥ 75 | VLATILAQL [VLATILAQL (SEQ ID NO: 117)]
50 to 75 | VLDGMIYAI [VLDGMIYAI (SEQ ID NO: 118)]
50 to 75 | ELCDIILRV [ELCDIILRV (SEQ ID NO: 119)]

peptide exchange yield [%] | Binder
50 to 75 | VLLGTTWAL [VLLGTTWAL (SEQ ID NO: 120)]
50 to 75 | GLLLLVPLL [GLLLLVPLL (SEQ ID NO: 12)]
50 to 75 | YLTGYNFTL [YLTGYNFTL (SEQ ID NO: 121)]
20 to 50 | AISEAQESV [AISEAQESV (SEQ ID NO: 122)]
50 to 75 | ALLSAFVQL [ALLSAFVQL (SEQ ID NO: 123)]
50 to 75 | FLGVVVPTV [FLGVVVPTV (SEQ ID NO: 124)]
50 to 75 | FVAPPTAAV [FVAPPTAAV (SEQ ID NO: 125)]
50 to 75 | HLMEENMIVYV [HLMEENMIVYV (SEQ ID NO: 127)]
50 to 75 | KLFDASPTFFA [KLFDASPTFFA (SEQ ID NO: 128)]
50 to 75 | SLFEASQQL [SLFEASQQL (SEQ ID NO: 129)]
50 to 75 | VIFSYVLGV [VIFSYVLGV (SEQ ID NO: 130)]
20 to 50 | VLIEETDQL [VLIEETDQL (SEQ ID NO: 131)]
50 to 75 | HLVPASWKL [HLVPASWKL (SEQ ID NO: 13)]
20 to 50 | VLQDQVDEL [VLQDQVDEL (SEQ ID NO: 132)]
20 to 50 | ALEELTGFREL [ALEELTGFREL (SEQ ID NO: 133)]
50 to 75 | ALGRLGILSV [ALGRLGILSV (SEQ ID NO: 134)]
50 to 75 | ALTGLQFQL [ALTGLQFQL (SEQ ID NO: 135)]
50 to 75 | FIFGIVHLL [FIFGIVHLL (SEQ ID NO: 136)]
50 to 75 | FIQQERFFL [FIQQERFFL (SEQ ID NO: 137)]
≥ 75 | NLINNIFEL [NLINNIFEL (SEQ ID NO: 138)]
≥ 75 | FLASPLVAI [FLASPLVAI (SEQ ID NO: 139)]
50 to 75 | FLFEDFVEV [FLFEDFVEV (SEQ ID NO: 140)]

peptide exchange yield [%] | Binder
50 to 75 | FLGELTLQL [FLGELTLQL (SEQ ID NO: 141)]
20 to 50 | LLSDPTPGA [LLSDPTPGA (SEQ ID NO: 14)]
50 to 75 | FLYEDSKSVRL [FLYEDSKSVRL (SEQ ID NO: 142)]
50 to 75 | TLHAVDVTL [TLHAVDVTL (SEQ ID NO: 143)]
50 to 75 | GLITQVDKL [GLITQVDKL (SEQ ID NO: 144)]
50 to 75 | GLLHEVVSL [GLLHEVVSL (SEQ ID NO: 145)]
50 to 75 | GLLQQPPAL [GLLQQPPAL (SEQ ID NO: 146)]
50 to 75 | GLSEYQRNFL [GLSEYQRNFL (SEQ ID NO: 147)]
50 to 75 | ICAGHVPGV [ICAGHVPGV (SEQ ID NO: 148)]
50 to 75 | ILNPVTTKL [ILNPVTTKL (SEQ ID NO: 149)]
50 to 75 | ILSEKEYKL [ILSEKEYKL (SEQ ID NO: 150)]
50 to 75 | ILVKQSPML [ILVKQSPML (SEQ ID NO: 151)]
≥ 75 | IIIEDLLEA [IIIEDLLEA (SEQ ID NO: 15)]
20 to 50 | KIMYTLVSV [KIMYTLVSV (SEQ ID NO: 152)]
50 to 75 | KLLKGIYAI [KLLKGIYAI (SEQ ID NO: 153)]
50 to 75 | KLMNIQQQL [KLMNIQQQL (SEQ ID NO: 154)]
50 to 75 | KLMTSLVKV [KLMTSLVKV (SEQ ID NO: 155)]
50 to 75 | KMLEDDLKL [KMLEDDLKL (SEQ ID NO: 156)]
50 to 75 | KVLEFLAKV [KVLEFLAKV (SEQ ID NO: 157)]
50 to 75 | KVQDVLHQV [KVQDVLHQV (SEQ ID NO: 158)]
50 to 75 | LLLSDSGFYL [LLLSDSGFYL (SEQ ID NO: 159)]
50 to 75 | LLPPPSPAA [LLPPPSPAA (SEQ ID NO: 160)]

Reference: patent publication US20170296640A1 (IMMATICS BIOTECHNOLOGIES, published 2017)
